Measured values as given in the supplement of paper PMC10126150.
± gives the standard deviation of the averaged measurements.

System: ATP
Assay: switch fluorescence ratio, 500 uM ATP over buffer (Cy3 cluster intensity, sum of 5 cycles each) (fold (ratio)); higher = stronger signal-on switching upon ATP binding; sequences stand for … in TCGTCGGCAGCGTCAGATGTGTATAAGAGACAGTTTTTTTTTTTTTTTTTTTTTTTTT…TC
Settings: aptamer strand: ATP DNA aptamer (quencher-CACCTGGGGGAGTATTGCGGAGGAAGG + anchor), 100 nM annealed; ATP concentration: 500 uM
How it was run: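 Imaging in selection buffer was followed by imaging after 15 min with 500 uM ATP at 22 °C, for Cy3-labelled switching-strand clusters annealed to 100 nM quencher-labelled ATP aptamer on a modified Illumina MiSeq flow-cell. Five of these buffer/ATP cycles ran, separated by NaOH stripping and re-annealing. The fluorescence ratio per cluster is summed target-cycle over summed buffer-cycle Cy3 intensity, averaged per switch-domain sequence; clusters outside 100-1000 RFU were removed.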
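Note: ATP exposure 15 min at 22 °C before imaging.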

Sequence | switch fluorescence ratio
TTACAGCTAG | 1.01 ± 0.056
TTACAGGGG | 1.18 ± 0.027
TTACAGGTTC | 1.031 ± 0.0019
TTACAGTTCA | 1.026 ± 0.0058
TTACATGTTG | 1.04 ± 0.04
TTACCATTAG | 0.965 ± 0.011
TTACCCCGTG | 1.13 ± 0.022
TTACCGGGCA | 1.033 ± 0.0093
TTACCGGGCT | 1.051 ± 0.004
TTACCTTTCT | 1.64 ± 0.64
TTACGAAAAG | 1.08 ± 0.14
TTACGAAACG | 1.08 ± 0.045
TTACGAAAGA | 1.07 ± 0.032
TTACGATGTG | 1.018 ± 0.0091
TTACGGATTC | 1.39 ± 0.5
TTACGGGAAT | 1.08 ± 0.1
TTACGGGGGA | 1.03 ± 0.072
TTACGGGTAT | 1.01 ± 0.039
TTACGGGTGC | 1.19 ± 0.033
TTACGGTATA | 1.17 ± 0.038
TTACGTAGAT | 1.12 ± 0.077
TTACGTGCTG | 0.9806 ± 0.0083
TTACGTGGTT | 1.07 ± 0.026
TTACTAAGGG | 1.04 ± 0.04
TTACTAGATG | 1.02 ± 0.021

Sequence | switch fluorescence ratio
TTACTATGTA | 1.02 ± 0.019
TTACTGAGGT | 0.992 ± 0.017
TTACTGATCG | 1.025 ± 0.0073
TTACTGCGGT | 1.014 ± 0.0034
TTACTGCTCG | 1.01 ± 0.03
TTACTGTGTT | 1 ± 0.034
TTACTTAGGG | 1.14 ± 0.17
TTACTTATTT | 1.04 ± 0.035
TTACTTCATA | 1.021 ± 0.0045
TTACTTGAAT | 0.969 ± 0.039
TTACTTGGGA | 1 ± 0.012
TTACTTTATT | 1.05 ± 0.053
TTACTTTTAC | 1.13 ± 0.14
TTACTTTTGC | 1.01 ± 0.065
TTAGAAAAGG | 1 ± 0.032
TTAGAACACA | 0.983 ± 0.0063
TTAGAAGGGA | 1.01 ± 0.056
TTAGACGTTC | 0.99809 ± 0.00032
TTAGAGATTC | 0.961 ± 0.031
TTAGAGCTGG | 1.01 ± 0.027
TTAGAGCTTC | 1.01 ± 0.038
TTAGAGGATT | 1.004 ± 0.007
TTAGAGGGA | 1 ± 0.047
TTAGAGGGGA | 0.985 ± 0.031
TTAGAGGGTA | 0.9736 ± 0.0085

Sequence | switch fluorescence ratio
TTAGAGGGTC | 0.9952 ± 0.0013
TTAGATCATG | 1.01 ± 0.023
TTAGATGGTG | 1.02 ± 0.033
TTAGATTCGG | 0.997 ± 0.039
TTAGATTGCA | 1.001 ± 0.0083
TTAGCAAATA | 1.155 ± 0.0099
TTAGCAGGTG | 2.78 ± 0.1
TTAGCATCTA | 0.999 ± 0.018
TTAGCCACGC | 0.9902 ± 0.0029
TTAGCGAGTT | 0.979 ± 0.014
TTAGCGCTGG | 1.01 ± 0.015
TTAGCGGCAG | 0.9883 ± 0.0034
TTAGCGGTAT | 1.08 ± 0.087
TTAGCGGTGT | 1.07 ± 0.14
TTAGCGTGCG | 0.953 ± 0.054
TTAGCTGCGG | 0.9951 ± 0.0042
TTAGCTGGCA | 1 ± 0.027
TTAGGAAAGG | 1.06 ± 0.12
TTAGGAAAGT | 0.9873 ± 0.0075
TTAGGACGCT | 1.03 ± 0.036
TTAGGACTTT | 0.975 ± 0.037
TTAGGAGAAA | 1.03 ± 0.053
TTAGGATATA | 1 ± 0.046
TTAGGATG | 1.01 ± 0.0092
TTAGGCCAGG | 1.05 ± 0.017

Sequence | switch fluorescence ratio
TTAGGGAAAA | 0.983 ± 0.038
TTAGGGAATT | 0.989 ± 0.046
TTAGGGGACG | 0.981 ± 0.04
TTAGGGGATT | 1.01 ± 0.027
TTAGGGTCGG | 1 ± 0.036
TTAGGGTGGT | 0.99 ± 0.018
TTAGGGTTGT | 1 ± 0.023
TTAGGTGCGT | 1.08 ± 0.028
TTAGGTGGGC | 1.08 ± 0.021
TTAGGTTATT | 0.9786 ± 0.0027
TTAGGTTGCA | 0.9809 ± 0.0092
TTAGTAAGGC | 1.22 ± 0.2
TTAGTAATTC | 1.12 ± 0.15
TTAGTAGATT | 0.991 ± 0.036
TTAGTATTGG | 1.02 ± 0.019
TTAGTCCGTG | 1.01 ± 0.036
TTAGTGAGGG | 0.99 ± 0.042
TTAGTGGACT | 1.02 ± 0.016
TTAGTGGCCC | 0.99 ± 0.016
TTAGTGGCTT | 0.994 ± 0.035
TTAGTGGGAG | 0.966 ± 0.033
TTAGTGTGTG | 0.994 ± 0.011
TTAGTTATTT | 0.999 ± 0.035
TTAGTTCCTT | 1.01 ± 0.024
TTAGTTGAGG | 0.987 ± 0.05
